Target: T1, ubiquitin E3 ligase TRIM59 (human (endogenous in 293T), UniProt Q8IWR1 1-403)
T1 construct: TRIM59, ubiquitin E3 ligase primarily located in the ER, in 293T cells
T1 sequence (looked up): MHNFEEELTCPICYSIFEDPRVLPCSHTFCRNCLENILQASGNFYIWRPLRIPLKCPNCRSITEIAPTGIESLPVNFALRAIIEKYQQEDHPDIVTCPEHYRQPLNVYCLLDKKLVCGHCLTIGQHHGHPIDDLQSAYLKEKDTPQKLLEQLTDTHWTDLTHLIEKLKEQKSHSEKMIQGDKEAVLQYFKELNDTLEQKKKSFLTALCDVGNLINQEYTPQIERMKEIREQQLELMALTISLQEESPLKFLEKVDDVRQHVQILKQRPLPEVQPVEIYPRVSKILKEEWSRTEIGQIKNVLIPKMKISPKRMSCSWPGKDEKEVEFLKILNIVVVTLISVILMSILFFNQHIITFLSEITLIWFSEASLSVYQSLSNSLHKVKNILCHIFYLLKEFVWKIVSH
Experiment: co-IP
Details: partners not purified

B1: SARS-CoV-2 ORF3a dG188 mutant, HA-tagged (natural protein)
chain: MDLFMRIFTIGTVTLKQGEIKDATPSDFVRATATIPIQASLPFGWLIVGVALLAVFQSASKIITLKKRWQLALSKGVHFVCNLLLLFVTVYSHLLLVAAGLEAPFLYLYALVYFLQSINFVRIIMRLWLCWKCRSKNPLLYDANYFLCWHTNCYDYCIPYNSVTSSIVITSGDGTTSPISEHDYQIGYTEKWESGVKDCVVLHSYFTSDYYQLYSTQLSTDTGVEHVTFFIYNKIVDEPEEHVQIHTIDGSSGVVNPVMEPIYDEPTTTTSVPL
notes: also called G188 deletion mutant; E-ORF3a (represented by the dG188 mutant); not shown: HA, C-terminal, kept
fold of pulled-down ORF3a against WT ORF3a (densitometry): ~1.5 fold

— publication PMC10790703 (mBio, 2023)
